Experiments:
[1] = target: cynomolgus monkey CCR8 (Chinese origin) (cynomolgus monkey); assay: flow cytometry on Cy CCR8+ CHO
[2] = target: cynomolgus monkey CCR8 (T4R), Mauritian origin (cynomolgus monkey); assay: flow cytometry on Cy CCR8 (T4R)+ CHO
[3] = target: CCR8 P_19-30 peptide construct (human); assay: flow cytometry, peptide construct on streptavidin beads
[4] = target: T1, CCR8 P_25-35 peptide construct (human); assay: as above
T1 sequence (chain, BAP biotinylated in vivo): CDAELIQTNGK

[5] = target: CCR8 P_1-35 peptide construct (full-length N-terminal peptide of human CCR8) (human); assay: as above
[6] = target: CCR8 P_13-24 peptide construct (human); assay: as above
[7] = target: CCR8 P_1-12 peptide construct (human); assay: as above
[8] = target: CCR8 P_7-18 peptide construct (human); assay: as above
[9] = target: human CCR8 (human) (UniProt P51685); assay: flow cytometry on HUT-78 (CCR8+/CD3-)
[10] = target: human CCR8 (human) (UniProt P51685); assay: flow cytometry on HUT-78 (CCR8+/CD3+)
[11] = target: human CCR8 (human) (UniProt P51685); assay: flow cytometry on hu CCR8+ CHO
[12] = target: cynomolgus CD3 (cynomolgus) (UniProt Q95LI5); assay: flow cytometry on LnPx4119
cynomolgus CD3 (cynomolgus), sequence (Q95LI5 22-198): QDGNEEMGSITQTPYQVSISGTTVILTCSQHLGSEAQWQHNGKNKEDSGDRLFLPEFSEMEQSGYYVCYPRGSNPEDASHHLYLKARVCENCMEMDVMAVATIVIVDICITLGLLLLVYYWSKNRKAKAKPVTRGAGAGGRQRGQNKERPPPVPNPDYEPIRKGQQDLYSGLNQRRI

[13] = target: human CD3 (human) (UniProt P07766); assay: flow cytometry on HUT-78 (CCR8+/CD3+)
human CD3 (human), sequence (P07766 23-207): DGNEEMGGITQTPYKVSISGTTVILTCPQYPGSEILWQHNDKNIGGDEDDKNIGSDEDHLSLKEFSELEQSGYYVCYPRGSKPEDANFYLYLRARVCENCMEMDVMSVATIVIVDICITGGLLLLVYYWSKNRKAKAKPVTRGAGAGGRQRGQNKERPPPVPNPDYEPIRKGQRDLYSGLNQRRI

[14] = target: human CD3 (human) (UniProt P07766); assay: flow cytometry on HPB-all

anti-CCR8 antibody clone 433H (BD 747578), sequence (VH): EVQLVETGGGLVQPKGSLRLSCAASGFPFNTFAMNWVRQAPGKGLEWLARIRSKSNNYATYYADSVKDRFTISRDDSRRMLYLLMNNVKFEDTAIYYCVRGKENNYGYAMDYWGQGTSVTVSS
anti-CCR8 antibody clone 433H (BD 747578), sequence (VL): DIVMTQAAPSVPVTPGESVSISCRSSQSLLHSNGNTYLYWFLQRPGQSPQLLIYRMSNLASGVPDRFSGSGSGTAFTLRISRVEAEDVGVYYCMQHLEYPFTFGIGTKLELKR
cynomolgus monkey CCR8 (T4R), Mauritian origin (cynomolgus monkey), sequence (O97665 other isoform, or with tags, fused parts or gaps): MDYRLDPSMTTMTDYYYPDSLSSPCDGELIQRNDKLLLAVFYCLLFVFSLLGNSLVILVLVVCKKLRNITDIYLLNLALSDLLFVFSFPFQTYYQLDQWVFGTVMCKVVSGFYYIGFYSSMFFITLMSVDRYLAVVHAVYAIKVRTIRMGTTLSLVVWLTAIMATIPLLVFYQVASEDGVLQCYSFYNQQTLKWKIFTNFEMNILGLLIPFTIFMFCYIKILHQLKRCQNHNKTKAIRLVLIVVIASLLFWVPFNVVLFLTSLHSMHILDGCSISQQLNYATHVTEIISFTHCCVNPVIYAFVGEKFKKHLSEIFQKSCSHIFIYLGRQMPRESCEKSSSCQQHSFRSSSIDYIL
cynomolgus monkey CCR8 (Chinese origin) (cynomolgus monkey), sequence (O97665 other isoform, or with tags, fused parts or gaps): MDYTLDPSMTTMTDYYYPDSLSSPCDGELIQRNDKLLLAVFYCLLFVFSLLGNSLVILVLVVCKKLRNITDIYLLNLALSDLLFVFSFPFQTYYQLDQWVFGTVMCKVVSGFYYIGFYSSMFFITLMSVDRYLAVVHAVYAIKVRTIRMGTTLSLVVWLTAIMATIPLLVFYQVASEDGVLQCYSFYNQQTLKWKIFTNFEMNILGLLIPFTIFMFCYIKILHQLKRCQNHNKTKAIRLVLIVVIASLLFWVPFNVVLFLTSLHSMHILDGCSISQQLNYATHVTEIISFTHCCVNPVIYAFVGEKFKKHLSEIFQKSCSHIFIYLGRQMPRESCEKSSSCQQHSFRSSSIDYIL

anti-CCR8 antibody clone 433H (BD 747578)
mean BL2 of the sample/mean BL2 of the secondary antibody control [1]: 136 | mean BL2 of the sample/mean BL2 of the secondary antibody control [2]: 106 | Median Fluorescence of Sample/Median Fluorescence of Negative Control [3]: 0.9 | Median Fluorescence of Sample/Median Fluorescence of Negative Control [4]: 0.9 | Median Fluorescence of Sample/Median Fluorescence of Negative Control [5]: 290 | Median Fluorescence of Sample/Median Fluorescence of Negative Control [6]: 300 | Median Fluorescence of Sample/Median Fluorescence of Negative Control [7]: 0.9 | Median Fluorescence of Sample/Median Fluorescence of Negative Control [8]: 0.9

anti-CCR8 antibody clone L263G8 (BioLegend, 360602)
mean BL2 of the sample/mean BL2 of the secondary antibody control [9]: 6 | mean BL2 of the sample/mean BL2 of the secondary antibody control [10]: 9 | mean BL2 of the sample/mean BL2 of the secondary antibody control [11]: 40 | Median Fluorescence of Sample/Median Fluorescence of Negative Control [3]: 0.9 | Median Fluorescence of Sample/Median Fluorescence of Negative Control [4]: 0.9 | Median Fluorescence of Sample/Median Fluorescence of Negative Control [5]: 751 | Median Fluorescence of Sample/Median Fluorescence of Negative Control [6]: 285 | Median Fluorescence of Sample/Median Fluorescence of Negative Control [7]: 0.9 | Median Fluorescence of Sample/Median Fluorescence of Negative Control [8]: 0.9

anti-FLAG antibody (clone M2, Sigma F3165/F1804)
Median Fluorescence of Sample/Median Fluorescence of Negative Control [3]: 590 | Median Fluorescence of Sample/Median Fluorescence of Negative Control [4]: 582 | Median Fluorescence of Sample/Median Fluorescence of Negative Control [5]: 522 | Median Fluorescence of Sample/Median Fluorescence of Negative Control [6]: 628 | Median Fluorescence of Sample/Median Fluorescence of Negative Control [7]: 596 | Median Fluorescence of Sample/Median Fluorescence of Negative Control [8]: 589

anti-V5 antibody (clone SV5-Pk1; AbD Serotec, MCA 1360)
Median Fluorescence of Sample/Median Fluorescence of Negative Control [3]: 1020 | Median Fluorescence of Sample/Median Fluorescence of Negative Control [4]: 1090 | Median Fluorescence of Sample/Median Fluorescence of Negative Control [5]: 953 | Median Fluorescence of Sample/Median Fluorescence of Negative Control [6]: 1300 | Median Fluorescence of Sample/Median Fluorescence of Negative Control [7]: 1090 | Median Fluorescence of Sample/Median Fluorescence of Negative Control [8]: 1090

control TCE molecule (CD3-based TCE molecule recognizing an irrelevant target antigen) (bispecific antibody)
mean BL2 of the sample/mean BL2 of the secondary antibody control [12]: 75 | mean BL2 of the sample/mean BL2 of the secondary antibody control [13]: 72 | mean BL2 of the sample/mean BL2 of the secondary antibody control [14]: 398

Reference: patent US20250129160A1
